# T1: MPDZ_12, O75970
# T1 sequence (O75970 1857-1958, limits assumed, looked up): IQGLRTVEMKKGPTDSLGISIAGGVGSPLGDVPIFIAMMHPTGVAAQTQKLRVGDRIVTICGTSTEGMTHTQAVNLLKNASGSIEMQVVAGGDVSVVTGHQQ
# T2: APBA3_1, O96018
# T2 sequence (O96018 389-490, limits assumed, looked up): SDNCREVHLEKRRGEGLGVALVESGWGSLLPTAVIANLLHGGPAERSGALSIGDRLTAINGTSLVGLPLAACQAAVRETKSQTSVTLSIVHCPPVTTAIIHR
# T3: APBA1_2, Q02410
# T3 sequence (Q02410 742-832, limits assumed, looked up): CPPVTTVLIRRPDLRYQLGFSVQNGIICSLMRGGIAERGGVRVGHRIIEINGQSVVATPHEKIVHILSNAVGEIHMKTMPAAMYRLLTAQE
# T4: GRIP1_7, Q9Y3R0
# T4 sequence (Q9Y3R0 999-1096, limits assumed, looked up): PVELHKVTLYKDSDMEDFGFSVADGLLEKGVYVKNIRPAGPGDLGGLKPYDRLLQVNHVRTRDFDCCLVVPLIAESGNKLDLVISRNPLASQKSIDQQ
# T5: SYNJ2BP, P57105
# T5 sequence (P57105 8-110, limits assumed, looked up): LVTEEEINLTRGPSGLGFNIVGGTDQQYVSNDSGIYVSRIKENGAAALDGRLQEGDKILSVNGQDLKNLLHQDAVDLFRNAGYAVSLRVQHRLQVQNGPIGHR
# T6: PTPN13_1, Q12923
# T6 sequence (Q12923 1088-1188, limits assumed, looked up): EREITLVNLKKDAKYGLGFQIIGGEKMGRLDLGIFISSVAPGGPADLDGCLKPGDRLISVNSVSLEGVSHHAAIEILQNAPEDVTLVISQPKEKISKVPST
# T7: GRIP1_3, Q9Y3R0
# T7 sequence (Q9Y3R0 247-346, limits assumed, looked up): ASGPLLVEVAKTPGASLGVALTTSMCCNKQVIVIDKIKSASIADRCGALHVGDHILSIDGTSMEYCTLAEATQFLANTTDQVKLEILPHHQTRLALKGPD
# T8: MPP6, Q9NZW5
# T8 sequence (Q9NZW5 125-219, limits assumed, looked up): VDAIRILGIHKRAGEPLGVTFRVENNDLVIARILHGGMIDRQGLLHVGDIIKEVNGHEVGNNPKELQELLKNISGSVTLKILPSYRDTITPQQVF
# T9: PDZD7_3, Q9H5P4
# T9 sequence (Q9H5P4 857-944, limits assumed, looked up): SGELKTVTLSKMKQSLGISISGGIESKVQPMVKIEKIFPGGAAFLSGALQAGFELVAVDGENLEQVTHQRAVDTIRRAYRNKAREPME
# T10: DFNB31_1, Q9P202
# T10 sequence (Q9P202 135-233, limits assumed, looked up): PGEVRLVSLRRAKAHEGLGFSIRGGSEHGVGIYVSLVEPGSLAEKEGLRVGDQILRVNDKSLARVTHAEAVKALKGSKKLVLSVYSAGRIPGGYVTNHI
# T11: DFNB31_3, Q9P202
# T11 sequence (Q9P202 811-907, limits assumed, looked up): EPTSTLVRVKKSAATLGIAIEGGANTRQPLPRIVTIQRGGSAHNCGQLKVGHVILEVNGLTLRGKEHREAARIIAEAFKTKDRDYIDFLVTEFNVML
# T12: SHANK1, Q9Y566
# T12 sequence (Q9Y566 658-767, limits assumed, looked up): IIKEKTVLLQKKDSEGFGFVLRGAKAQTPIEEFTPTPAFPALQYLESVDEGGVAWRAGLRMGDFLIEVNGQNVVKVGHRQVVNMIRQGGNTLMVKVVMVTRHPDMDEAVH
# B1: SEMA4F, O95754 (peptide)
# chain: PLATCDETSI
# B2: TBPL1, P62380 (peptide)
# chain: FVFESRKEIL
# Molecular target: TJP1_3, Q07157
# Test: holdup assay
# Design: key: below the threshold = too weak to quantify, mostly under pKd 3.1 to 4
# Conditions: plain residues with an end cap or a label only (N-terminal biotin on a linker: ado-ado)
# Sequence of TJP1_3, Q07157 (Q07157 416-512): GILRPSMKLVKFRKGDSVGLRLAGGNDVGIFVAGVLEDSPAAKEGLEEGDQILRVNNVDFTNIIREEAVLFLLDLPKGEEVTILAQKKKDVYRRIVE
row,Binder,pKd
1,B1,below the threshold
2,B2,below the threshold

# Molecular target: DLG5_1, Q8TDM6
# Test: holdup assay
# Design: key: below the threshold = too weak to quantify, mostly under pKd 3.1 to 4
# Conditions: plain residues with an end cap or a label only (N-terminal biotin on a linker: ado-ado)
# Sequence of DLG5_1, Q8TDM6 (Q8TDM6 617-713): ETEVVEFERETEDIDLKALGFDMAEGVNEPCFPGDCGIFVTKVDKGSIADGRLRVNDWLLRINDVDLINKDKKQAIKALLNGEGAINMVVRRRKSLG
row,Binder,pKd
1,B1,below the threshold
2,B2,below the threshold

# Molecular target: NHERF2_2, Q15599
# Test: holdup assay
# Design: key: below the threshold = too weak to quantify, mostly under pKd 3.1 to 4
# Conditions: plain residues with an end cap or a label only (N-terminal biotin on a linker: ado-ado)
# Sequence of NHERF2_2, Q15599 (Q15599 142-238): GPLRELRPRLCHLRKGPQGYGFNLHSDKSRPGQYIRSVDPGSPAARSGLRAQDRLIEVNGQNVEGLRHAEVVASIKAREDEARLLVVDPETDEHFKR
row,Binder,pKd
1,B1,4.31
2,B2,below the threshold

# Molecular target: T1, MPDZ_12, O75970
# Test: holdup assay
# Design: key: below the threshold = too weak to quantify, mostly under pKd 3.1 to 4
# Conditions: plain residues with an end cap or a label only (N-terminal biotin on a linker: ado-ado)
row,Binder,pKd
1,B1,below the threshold
2,B2,below the threshold

# Molecular target: FRMPD2_3, Q68DX3
# Test: holdup assay
# Design: key: below the threshold = too weak to quantify, mostly under pKd 3.1 to 4
# Conditions: plain residues with an end cap or a label only (N-terminal biotin on a linker: ado-ado)
# Sequence of FRMPD2_3, Q68DX3 (Q68DX3 1073-1166): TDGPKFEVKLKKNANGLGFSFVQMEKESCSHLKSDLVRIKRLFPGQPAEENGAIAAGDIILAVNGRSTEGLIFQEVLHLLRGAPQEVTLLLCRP
row,Binder,pKd
1,B1,below the threshold
2,B2,below the threshold

# Molecular target: T2, APBA3_1, O96018
# Test: holdup assay
# Design: key: below the threshold = too weak to quantify, mostly under pKd 3.1 to 4
# Conditions: plain residues with an end cap or a label only (N-terminal biotin on a linker: ado-ado)
row,Binder,pKd
1,B1,below the threshold
2,B2,below the threshold

# Molecular target: T3, APBA1_2, Q02410
# Test: holdup assay
# Design: key: below the threshold = too weak to quantify, mostly under pKd 3.1 to 4
# Conditions: plain residues with an end cap or a label only (N-terminal biotin on a linker: ado-ado)
row,Binder,pKd
1,B1,below the threshold
2,B2,below the threshold

# Molecular target: MAGI1_1, Q96QZ7
# Test: holdup assay
# Design: key: below the threshold = too weak to quantify, mostly under pKd 3.1 to 4
# Conditions: plain residues with an end cap or a label only (N-terminal biotin on a linker: ado-ado)
# Sequence of MAGI1_1, Q96QZ7 (Q96QZ7 1-106): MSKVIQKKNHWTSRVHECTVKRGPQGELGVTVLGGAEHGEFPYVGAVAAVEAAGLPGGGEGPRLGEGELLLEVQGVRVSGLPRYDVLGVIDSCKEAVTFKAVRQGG
row,Binder,pKd
1,B1,below the threshold
2,B2,below the threshold

# Molecular target: DLG4_2, P78352
# Test: holdup assay
# Design: key: below the threshold = too weak to quantify, mostly under pKd 3.1 to 4
# Conditions: plain residues with an end cap or a label only (N-terminal biotin on a linker: ado-ado)
# Sequence of DLG4_2, P78352 (P78352 155-259): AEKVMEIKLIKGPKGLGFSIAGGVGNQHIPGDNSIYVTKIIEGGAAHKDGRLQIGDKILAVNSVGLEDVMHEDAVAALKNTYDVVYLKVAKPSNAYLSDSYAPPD
row,Binder,pKd
1,B1,3.67
2,B2,below the threshold

# Molecular target: T4, GRIP1_7, Q9Y3R0
# Test: holdup assay
# Design: key: below the threshold = too weak to quantify, mostly under pKd 3.1 to 4
# Conditions: plain residues with an end cap or a label only (N-terminal biotin on a linker: ado-ado)
row,Binder,pKd
1,B1,below the threshold
2,B2,below the threshold

# Molecular target: DLG1_1, Q12959
# Test: holdup assay
# Design: key: below the threshold = too weak to quantify, mostly under pKd 3.1 to 4
# Conditions: plain residues with an end cap or a label only (N-terminal biotin on a linker: ado-ado)
row,Binder,pKd
1,B1,3.59
2,B2,below the threshold

# Molecular target: AHNAK1, Q09666
# Test: holdup assay
# Design: key: below the threshold = too weak to quantify, mostly under pKd 3.1 to 4
# Conditions: plain residues with an end cap or a label only (N-terminal biotin on a linker: ado-ado)
# Sequence of AHNAK1, Q09666 (Q09666 4-100): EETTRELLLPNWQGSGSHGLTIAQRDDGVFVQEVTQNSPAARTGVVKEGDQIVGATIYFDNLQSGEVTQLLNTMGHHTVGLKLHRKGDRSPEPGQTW
row,Binder,pKd
1,B1,below the threshold
2,B2,below the threshold

# Molecular target: T5, SYNJ2BP, P57105
# Test: holdup assay
# Design: key: below the threshold = too weak to quantify, mostly under pKd 3.1 to 4
# Conditions: plain residues with an end cap or a label only (N-terminal biotin on a linker: ado-ado)
row,Binder,pKd
1,B1,4.62
2,B2,below the threshold

# Molecular target: Inadl_8, Q8NI35
# Test: holdup assay
# Design: key: below the threshold = too weak to quantify, mostly under pKd 3.1 to 4
# Conditions: plain residues with an end cap or a label only (N-terminal biotin on a linker: ado-ado)
# Sequence of Inadl_8, Q8NI35 (Q8NI35 1425-1530): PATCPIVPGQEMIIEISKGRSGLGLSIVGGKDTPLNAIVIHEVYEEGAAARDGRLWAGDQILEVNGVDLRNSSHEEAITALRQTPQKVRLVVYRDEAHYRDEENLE
row,Binder,pKd
1,B1,below the threshold
2,B2,below the threshold

# Molecular target: T6, PTPN13_1, Q12923
# Test: holdup assay
# Design: key: below the threshold = too weak to quantify, mostly under pKd 3.1 to 4
# Conditions: plain residues with an end cap or a label only (N-terminal biotin on a linker: ado-ado)
row,Binder,pKd
1,B1,below the threshold
2,B2,below the threshold

# Molecular target: GRID2IP_2, A4D2P6
# Test: holdup assay
# Design: key: below the threshold = too weak to quantify, mostly under pKd 3.1 to 4
# Conditions: plain residues with an end cap or a label only (N-terminal biotin on a linker: ado-ado)
# Sequence of GRID2IP_2, A4D2P6 (A4D2P6 272-370): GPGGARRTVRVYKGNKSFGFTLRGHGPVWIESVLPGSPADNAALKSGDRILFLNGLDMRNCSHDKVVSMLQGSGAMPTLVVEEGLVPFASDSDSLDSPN
row,Binder,pKd
1,B1,below the threshold
2,B2,below the threshold

# Molecular target: T7, GRIP1_3, Q9Y3R0
# Test: holdup assay
# Design: key: below the threshold = too weak to quantify, mostly under pKd 3.1 to 4
# Conditions: plain residues with an end cap or a label only (N-terminal biotin on a linker: ado-ado)
row,Binder,pKd
1,B1,below the threshold
2,B2,below the threshold

# Molecular target: T8, MPP6, Q9NZW5
# Test: holdup assay
# Design: key: below the threshold = too weak to quantify, mostly under pKd 3.1 to 4
# Conditions: plain residues with an end cap or a label only (N-terminal biotin on a linker: ado-ado)
row,Binder,pKd
1,B1,below the threshold
2,B2,3.53

# Molecular target: GRID2IP_1, A4D2P6
# Test: holdup assay
# Design: key: below the threshold = too weak to quantify, mostly under pKd 3.1 to 4
# Conditions: plain residues with an end cap or a label only (N-terminal biotin on a linker: ado-ado)
# Sequence of GRID2IP_1, A4D2P6 (A4D2P6 1-87): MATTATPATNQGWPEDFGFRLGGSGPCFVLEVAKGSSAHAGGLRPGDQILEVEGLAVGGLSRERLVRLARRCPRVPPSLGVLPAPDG
row,Binder,pKd
1,B1,below the threshold
2,B2,below the threshold

# Molecular target: T9, PDZD7_3, Q9H5P4
# Test: holdup assay
# Design: key: below the threshold = too weak to quantify, mostly under pKd 3.1 to 4
# Conditions: plain residues with an end cap or a label only (N-terminal biotin on a linker: ado-ado)
row,Binder,pKd
1,B1,4.43
2,B2,3.99

# Molecular target: PDZRN4_1, Q6ZMN7
# Test: holdup assay
# Design: key: below the threshold = too weak to quantify, mostly under pKd 3.1 to 4
# Conditions: plain residues with an end cap or a label only (N-terminal biotin on a linker: ado-ado)
# Sequence of PDZRN4_1, Q6ZMN7 (Q6ZMN7 213-318): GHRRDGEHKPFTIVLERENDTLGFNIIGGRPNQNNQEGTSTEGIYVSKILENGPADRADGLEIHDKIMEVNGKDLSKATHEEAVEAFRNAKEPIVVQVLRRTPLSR
row,Binder,pKd
1,B1,4.33
2,B2,below the threshold

# Molecular target: T10, DFNB31_1, Q9P202
# Test: holdup assay
# Design: key: below the threshold = too weak to quantify, mostly under pKd 3.1 to 4
# Conditions: plain residues with an end cap or a label only (N-terminal biotin on a linker: ado-ado)
row,Binder,pKd
1,B1,5.13
2,B2,below the threshold

# Molecular target: T11, DFNB31_3, Q9P202
# Test: holdup assay
# Design: key: below the threshold = too weak to quantify, mostly under pKd 3.1 to 4
# Conditions: plain residues with an end cap or a label only (N-terminal biotin on a linker: ado-ado)
row,Binder,pKd
1,B1,3.7
2,B2,below the threshold

# Molecular target: MAGI1_2, Q96QZ7
# Test: holdup assay
# Design: key: below the threshold = too weak to quantify, mostly under pKd 3.1 to 4
# Conditions: plain residues with an end cap or a label only (N-terminal biotin on a linker: ado-ado)
# Sequence of MAGI1_2, Q96QZ7 (Q96QZ7 456-580): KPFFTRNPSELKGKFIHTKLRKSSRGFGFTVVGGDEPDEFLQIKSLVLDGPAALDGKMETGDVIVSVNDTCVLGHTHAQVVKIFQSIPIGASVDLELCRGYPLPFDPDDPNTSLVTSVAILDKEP
row,Binder,pKd
1,B1,below the threshold
2,B2,below the threshold

# Molecular target: DLG4_3, P78352
# Test: holdup assay
# Design: key: below the threshold = too weak to quantify, mostly under pKd 3.1 to 4
# Conditions: plain residues with an end cap or a label only (N-terminal biotin on a linker: ado-ado)
# Sequence of DLG4_3, P78352 (P78352 306-403): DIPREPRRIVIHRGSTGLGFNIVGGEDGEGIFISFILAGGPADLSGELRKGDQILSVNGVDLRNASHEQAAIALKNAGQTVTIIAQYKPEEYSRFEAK
row,Binder,pKd
1,B1,below the threshold
2,B2,below the threshold

# Molecular target: T12, SHANK1, Q9Y566
# Test: holdup assay
# Design: key: below the threshold = too weak to quantify, mostly under pKd 3.1 to 4
# Conditions: plain residues with an end cap or a label only (N-terminal biotin on a linker: ado-ado)
row,Binder,pKd
1,B1,3.87
2,B2,below the threshold
